Results on 7 sequences are retold here after patent US6027884.

For one series, the system named is Alu I restriction endonuclease. As to the kind of experiment: cleavage_in_vitro. The settings on record: first strand cleavage rate constant; 13 uM (AT)2 competitor.
The sequence “AAAAAAAAAGCTTTTTTTTT (double strand) [(AA)4 AGCT(TT)4]” gave an activity of 0.0031 min⁻¹. On to “AAAAAAAGCTTTTTTT (double strand) [(AA)3 AGCT(TT)3]”, for which the activity came out at 0.0039 min⁻¹. Still for that read-out and setting: in the case of “AAAAAGCTTTTT (double strand) [(AA)2 AGCT(TT)2]” it was 0.0063 min⁻¹; in that of “AAATATAGCTATATTT (double strand) [(AA)(AT)2 AGCT(AT)2 TT]”, 0.0077 min⁻¹; in that of “ATATATAGCTATATAT (double strand) [(AT)3 AGCT(AT)3]”, 0.0115 min⁻¹. On the same count and under the same terms, in the case of “ATATATATAGCTATATATAT (double strand) [(AT)4 AGCT(AT)4]” it was 0.0093 min⁻¹.

The same series, now with this note: first strand cleavage rate constant; 13 uM (AT)2 competitor, 95 nM labeled duplex.
“ATATAGCTATAT (double strand) [(AT)2 AGCT(AT)2]” displayed an activity of 0.019 min⁻¹.
